According to patent US9453061B2, “Method and compositions for treatment of calcineurin-related diseases” (BROWN UNIVERSITY, priority 2014, dated 2016):

B1: RNA-binding domain (amino acid positions 1-88): structured N-terminal RNA-binding domain of RCAN1, amino acid positions 1-88 (protein, UniProt P53805 1-88, looked up, fragment)
chain: MEDGVAGPQLGAAAEAAEAAEARARPGVTLRPFAPLSGAAEADEGGGDWSFIDCEMEEVDLQDLPSATIACHLDPRVFVDGLCRAKFE

Biological target: T1, calcineurin (Homo sapiens, UniProt Q08209)
T1 construct: made in house
T1 sequence (Q08209 1-391 limits assumed): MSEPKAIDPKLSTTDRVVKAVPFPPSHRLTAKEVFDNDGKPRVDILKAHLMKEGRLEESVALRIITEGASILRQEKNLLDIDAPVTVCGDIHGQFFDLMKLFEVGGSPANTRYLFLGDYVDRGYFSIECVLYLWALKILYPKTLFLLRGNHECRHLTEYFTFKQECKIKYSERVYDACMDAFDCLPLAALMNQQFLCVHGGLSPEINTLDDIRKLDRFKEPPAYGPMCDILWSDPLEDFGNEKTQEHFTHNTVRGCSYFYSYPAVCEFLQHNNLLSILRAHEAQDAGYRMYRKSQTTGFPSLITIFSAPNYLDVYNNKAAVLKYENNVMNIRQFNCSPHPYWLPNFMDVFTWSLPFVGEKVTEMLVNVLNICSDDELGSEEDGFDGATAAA
T1 sequence (P63098 whole entry partner): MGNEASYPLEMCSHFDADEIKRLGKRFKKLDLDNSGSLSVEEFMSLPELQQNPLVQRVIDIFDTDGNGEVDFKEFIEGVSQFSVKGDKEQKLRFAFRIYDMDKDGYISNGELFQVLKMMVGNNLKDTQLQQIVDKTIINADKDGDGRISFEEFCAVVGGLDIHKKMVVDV
Assay: Isothermal titration calorimetry (ITC) of RCAN1 constructs with calcineurin
Type: binding
Protocol: Only RCAN1^89-197 (SEQ ID NO: 2) was labeled with NMR active nuclei; calcineurin was unlabeled. […] See, FIG. 2.
Affinity of each RCAN1 construct for calcineurin was measured using ITC to determine the individual contribution of each motif to binding. […] See, FIG. 2A.
The CNB subunit was analyzed to determine whether the subunit influences binding by generating a construct of only the calcineurin catalytic domain, CNAcat containing residues 1-348, and identical to a previously characterized CNA construct. See, Takeuchi et al., Structure 15, 587-97 (2007).
To determine how the TxxP (SEQ ID NO: 11) motif binds and engages calcineurin, the residues within and surrounding the TxxP (SEQ ID NO: 11) motif were mutated (i.e. K182A/E, Q185A, E190R/A, Y191A) and ITC was used to quantify which residues are most critical for calcineurin binding. ITC was used to determine whether the TxxP (SEQ ID NO: 11) motif binds only the CNA catalytic domain, or also requires CNB for binding using RCAN1^128-197, without requiring the LxVP (SEQ ID NO: 10) motif. Calcineurin active site residues were mutated as follows: R122A/D, H151A, D118A, R254A/D; and the change in affinity was quantified.

Molecule | Kd [nM] | binding to calcineurin (in words)
RCAN1^128-192: within SEQ ID NO: 2; includes RCAN1^128-164 and the TxxP site | ~300 | –
B1 | – | does not interact directly
